These results are taken from patent US20160024208A1.

Residue numbers refer to the chain shown, from its start.

In assay [1] the target is full-length human Nav1.7 fused at its N-terminus to GFP, expressed in HEK293 cells (human) (UniProt Q15858). Briefly: cell-based or functional assay.
Assay [2] shares this target. As to the kind of experiment: flow cytometry; % stained hNav1.7-GFP-HEK293 minus parental HEK293. In general terms: Flow cytometry measures light scatter and fluorescence of single cells or particles in a stream.
In assay [3] the target is N-term Biotin Nav1.7 (3-3) peptide, mouse (mouse). Briefly: ELISA on coated peptide.
Assay [4] has as its target full-length human Nav1.7 fused at its N-terminus to GFP, expressed in HEK293 cells (human) (UniProt Q15858). As to the kind of experiment: flow cytometry on Nav1.7-GFP-HEK293, antibody 3.3 nM.
The target is the same in assay [5]. As to the kind of experiment: flow cytometry on Nav1.7-GFP-HEK293, antibody 3.3 nM preincubated with 3.3 uM EC 3-1 peptide as competitor.

B1: H4H382B (antibody, V domains shown)
VH: EVQLVQSGGGVVQPGRSLRLSCEASGFTFSSYGMHWVRQAPGKGLEWVAVISYDGSNKHYTDSVKGRFTISRDNSKNTLYLQMNSLRAEDTAVYFCAQSRGYSYGLGYWGQGTLVTVSS
VL: DIQMTQSPDSLAVSLGERATINCKSSQSVLSSSNNENYLVWYQQKPGQPPKLLIYWASTREPGVPDRFSGGGSGTDFTLTISSLQAEDVAVYYCQQYHSIPYTFGQGTKVEIKR
On to B1, for which the Current blocking (Average % inhibition), IonWorks Quattro, 223 nM antibody in assay [1] was -6%. The % Binding Nav1.7 in assay [2] was 13%.

B2: H4H471B (antibody, V domains shown)
VH: EVQLVESGGGLVKPGGSLRLSCAASGVTFSDYYMTWIRQAPGKGLEWVSYISTDGRTIYYADSVKGRFTISRDNAKNSLYLQMNNLRAEDTAVYYCARGVDSDDYEDFYSYYDMDVWGQGTTVTVSS
VL: DIQMTQSPSSLSASVGDRVTITCRASQGISNYLAWFQQKPGKAPKSLIYAASSLQGGVPSRFSGSGSGTDFTLTISSLQPEDFATYYCQQYNSYPLTFGGGTKVEIKR
B2 gave an OD450 in assay [3] of less than 0.2 od.

B3: H4H441B (antibody, V domains shown)
VH: QVQLQQWGAGLLKPSETLSLTCAVYGGSFSGHYWTWIRQPPGKGLEWIGEINHRGNTNYNPSLKSRATISVDTSKNQFSLKLSSVTAADTAVYYCAREGSLAARLWFFDLWGRDTPVTVSS
VL: DIQMTQSPSSLSASVGDRGTVTCRASQNIRTYLNWYQQKPGKAPKLLIYAASSLQSGVPSRFSGSGSGTDFTLTISSLQPEDFATYYCQQSYGTPYTFGQGTKVEIKR
As to B3, the Current blocking (Average % inhibition), IonWorks Quattro, 223 nM antibody in assay [1] was 81%.

B4: H4H448B (antibody, V domains shown)
VH: EVQLVQSGGGLVQPGRSLRLSCAASGFTFDDYAMHWVRQAPGKGLEWVSGISWNSGSIGYADSVKGRFTISRDNAKNSLYLQMNSLRAEDTALYYCAKDIEYYDILTGYYSYYIMDVWGQGTTVTVSS
VL: B3 VL with Q3R, V21I, R30N, T31S, Q38L, Y49F, G93S, T94S, Y96F
Regarding B4, in assay [4], the % Binding Nav1.7 (Stable Line) was found to be 9.2%. Further, the % Binding Nav1.7 in assay [2] is 9.2%. For the same molecule, the % Binding Nav1.7 + 1000x Peptide (Competition Binding) in assay [5] was determined as 5.8%.

B5: H4H443B (antibody, V domains shown)
VH: B4 VH with E1Q, Q6E, A40V, S52N, Y80F
VL: DIQMTQSPSFLSASVGDRVTITCWASQGISSYLAWYQQKPGKAPKLLIYASSTLQSGVPSRFSGSGSGTEFTLTISSLQPEDFATYYCQQFNSYPPTFGQGTKVEIKR
B5 gave a % Binding Nav1.7 (Stable Line) in assay [4] of 10.1%. In addition, the % Binding Nav1.7 in assay [2] was 10.1%. Besides, in assay [5], the % Binding Nav1.7 + 1000x Peptide (Competition Binding) amounted to 5.1%.
